Drawing on PMC8032985, this text covers Kd for six substances.

Test in all cases: MST; NT-647-NHS-labelled PP2A subunit at 20 nM as target, 12-point twofold dilution series of unlabelled ARPP as ligand; SEC buffer with 0.05% Tween-20; triplicate; single-site binding model
For assay [1], the target named is PP2A regulatory subunit B56γ.
Assay [2] deals with PP2A scaffolding subunit PR65α, full length (UniProt P30153).
Assay [3] deals with PP2A regulatory subunit B56α.
Chain of PP2A regulatory subunit B56α (Q15172 whole entry): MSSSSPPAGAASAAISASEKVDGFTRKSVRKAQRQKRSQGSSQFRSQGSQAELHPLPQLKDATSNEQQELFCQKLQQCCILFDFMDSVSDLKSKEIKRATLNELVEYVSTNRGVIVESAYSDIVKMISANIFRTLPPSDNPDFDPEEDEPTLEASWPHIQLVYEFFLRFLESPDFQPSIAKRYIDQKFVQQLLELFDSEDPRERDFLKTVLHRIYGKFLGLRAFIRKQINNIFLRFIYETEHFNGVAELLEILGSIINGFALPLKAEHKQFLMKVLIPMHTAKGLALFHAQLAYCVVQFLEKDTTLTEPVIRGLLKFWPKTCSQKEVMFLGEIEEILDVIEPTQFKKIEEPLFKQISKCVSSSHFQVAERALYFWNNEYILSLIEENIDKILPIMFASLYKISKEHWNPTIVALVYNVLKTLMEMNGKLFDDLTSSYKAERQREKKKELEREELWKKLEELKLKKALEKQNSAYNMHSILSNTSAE

Chain of PP2A regulatory subunit B56γ (Q13362 whole entry): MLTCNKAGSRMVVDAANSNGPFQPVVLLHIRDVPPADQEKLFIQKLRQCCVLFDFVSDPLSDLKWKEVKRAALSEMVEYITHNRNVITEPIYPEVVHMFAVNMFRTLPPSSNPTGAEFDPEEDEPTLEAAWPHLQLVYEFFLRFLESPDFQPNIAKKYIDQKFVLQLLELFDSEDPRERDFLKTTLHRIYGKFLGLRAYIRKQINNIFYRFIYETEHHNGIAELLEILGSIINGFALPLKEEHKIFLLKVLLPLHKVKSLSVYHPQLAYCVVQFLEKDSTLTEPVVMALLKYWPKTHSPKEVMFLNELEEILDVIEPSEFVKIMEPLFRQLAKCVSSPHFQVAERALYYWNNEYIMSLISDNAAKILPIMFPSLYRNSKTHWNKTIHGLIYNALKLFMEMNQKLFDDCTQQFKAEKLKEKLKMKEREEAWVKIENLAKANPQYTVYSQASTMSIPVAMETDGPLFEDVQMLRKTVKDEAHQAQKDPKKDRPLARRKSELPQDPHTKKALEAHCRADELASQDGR
Chain of PP2A scaffolding subunit PR65α, full length (P30153 whole entry): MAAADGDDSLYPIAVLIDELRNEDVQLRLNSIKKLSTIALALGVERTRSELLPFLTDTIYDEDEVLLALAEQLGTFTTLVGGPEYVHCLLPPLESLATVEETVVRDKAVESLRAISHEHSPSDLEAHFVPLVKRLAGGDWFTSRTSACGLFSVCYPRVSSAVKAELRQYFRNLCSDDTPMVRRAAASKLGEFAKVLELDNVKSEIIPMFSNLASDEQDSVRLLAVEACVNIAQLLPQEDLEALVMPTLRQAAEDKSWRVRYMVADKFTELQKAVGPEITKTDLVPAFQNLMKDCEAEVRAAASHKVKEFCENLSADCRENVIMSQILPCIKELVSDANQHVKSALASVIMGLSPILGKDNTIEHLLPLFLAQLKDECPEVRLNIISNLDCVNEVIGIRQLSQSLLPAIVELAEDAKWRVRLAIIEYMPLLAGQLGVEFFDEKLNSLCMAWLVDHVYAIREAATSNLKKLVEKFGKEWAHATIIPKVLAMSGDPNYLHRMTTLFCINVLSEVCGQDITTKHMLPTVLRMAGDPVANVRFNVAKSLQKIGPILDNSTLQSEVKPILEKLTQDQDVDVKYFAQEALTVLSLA

Take “ARPP-16 (splice variant of ARPP-19), wild type (natural protein)”: the Kd (commonly a measure of binding affinity in units of concentration) is 710 µM in assay [1] and 5.4 µM in assay [2]. Take “ARPP-16 (splice variant of ARPP-19), wild type (natural protein; other documents disagree on this pair)”: the Kd in assay [3] was 80 µM. “ARPP-16 S46E phosphomimicking mutant (natural protein)”: the figures for the Kd in assay [1] and in assay [2] were 440 µM and 1 µM, respectively. Consider “ARPP-16 S46E phosphomimicking mutant (natural protein; other documents disagree on this pair)”, for which, in assay [3], the Kd came out at 110 µM. On to “ARPP-16 S88E phosphomimicking mutant (natural protein)”, for which the equilibrium dissociation constant (Kd) in assay [1] was 200 µM; in assay [2] it was 3.3 µM.

For “ARPP-16 S88E phosphomimicking mutant (natural protein; other documents disagree on this pair)”, in assay [3], the Kd amounted to 130 µM.
